Results as given in the Human Domainome abundance scans (Beltran et al. 2025).
± gives the uncertainty stated by the source.

B1: Serine/threonine-protein kinase A-Raf, residues 21 to 89; numbered along this chain, P10398 (parent)
chain: VKVYLPNKQRTVVTVRDGMSVYDSLDKALKVRGLNQDCCVVYRLIKGRKTVTAWDTAIAPLDGEELIVE

Variants of: B1
Assay: abundance fitness (aPCA) (normalised: wild type 0, dead -1); higher = more abundant; growth selection in yeast, the domain comes from the species named
Conditions: Homo sapiens

Variant	abundance fitness
R32P	-0.59 ± 0.19
R32Q	0.065 ± 0.044
R32N	0.141 ± 0.13
R32T	-0.2 ± 0.08
R32G	-0.298 ± 0.053
R32V	0.019 ± 0.055
K49H	-0.551 ± 0.14
K49S	-0.8 ± 0.11
K49D	-0.804 ± 0.28
K49A	-0.516 ± 0.083
K49M	-0.22 ± 0.095
G47V	-0.863 ± 0.097
G47Q	-0.359 ± 0.14
G47N	-0.665 ± 0.27
G47K	-0.768 ± 0.21
L61I	-0.206 ± 0.28
L61H	-0.312 ± 0.13
L61A	-0.168 ± 0.072
L61Q	-0.088 ± 0.089
L61S	-0.156 ± 0.065
L61V	-0.112 ± 0.057

Variant	abundance fitness
L61W	-0.297 ± 0.078
W54M	-0.499 ± 0.1
W54G	-1.03 ± 0.14
W54P	-0.924 ± 0.14
W54T	-0.797 ± 0.14
W54F	-0.89 ± 0.29
W54Y	-0.756 ± 0.2
W54Q	-0.916 ± 0.16
V13T	-0.864 ± 0.25
V13I	0.039 ± 0.064
V13P	-0.772 ± 0.15
V13G	-1.06 ± 0.16
V13W	-0.856 ± 0.095
E69I	-0.81 ± 0.33
E69N	-0.777 ± 0.21
E69S	-0.463 ± 0.13
D62F	-0.608 ± 0.19
D62C	0.13 ± 0.2
D62G	-0.047 ± 0.045
D62P	-0.095 ± 0.073
D62N	-0.051 ± 0.21

Variant	abundance fitness
D62R	-0.049 ± 0.042
T14W	-0.098 ± 0.067
T14E	-0.138 ± 0.055
T14F	-0.01 ± 0.092
T14N	-0.097 ± 0.12
T14A	-0.078 ± 0.058
T14G	-0.295 ± 0.042
T52G	-0.956 ± 0.11
T52H	-0.625 ± 0.21
T52K	-0.356 ± 0.072
T52C	-0.161 ± 0.11
T52V	0.117 ± 0.059
A28W	-0.425 ± 0.048
A28D	-0.371 ± 0.14
A28I	-0.271 ± 0.29
A28G	-0.78 ± 0.09
A28M	-0.037 ± 0.087
A28P	-0.15 ± 0.083
A28V	0.1 ± 0.042
A28C	-0.223 ± 0.11
A28S	-0.263 ± 0.067

Variant	abundance fitness
V12R	-0.096 ± 0.04
V12C	-0.304 ± 0.099
V12Q	-0.18 ± 0.069
V12N	-0.325 ± 0.17
V12F	-0.254 ± 0.19
V12I	-0.117 ± 0.36
P6G	-0.463 ± 0.28
P6C	-0.55 ± 0.24
P6Q	-0.363 ± 0.17
P6H	-0.683 ± 0.34
I45M	-0.508 ± 0.12
I45K	0.089 ± 0.18
I45H	-0.026 ± 0.14
I45T	-0.319 ± 0.12
V15A	-0.017 ± 0.052
V15C	0 ± 0.054
V15T	-0.147 ± 0.067
V15P	-0.257 ± 0.072
V15Q	-0.686 ± 0.15
V15D	-0.33 ± 0.1
